Measured values reported in patent publication US9611465B2, “Pharmaceutical composition containing core factor involved in proliferation and differentiation of central nervous cell” (Celgene Corporation, priority 2009, dated 2017).
Where a SMILES comes first, the peptide text is derived from it. The star is where a group is joined. Cbz = O=C(OCc1ccccc1)*

Experiments:
[1] = test system: mammalian cells expressing CRBN fused with a FLAG epitope tag; experiment: CRBN ubiquitin ligase activity using live cells (self-ubiquitination, immunoblotting); assay type: cell-based; conditions: MG132 added versus not added (FIG. 5)
Description: This process was carried out basically in accordance with the method of Ohtake et al. MG132, which is a proteasome inhibitor, was applied to mammalian cells expressing CRBN fused with a FLAG epitope tag, and the cells were left still. Subsequently, the cells were disrupted, and from the resulting cell lysate solution, FLAG was purified and CRBN was extracted, and then immunoblotting was performed under similar, but stricter, conditions to the above, whereby the self-ubiquitination was detected and measured.

[2] = biological target: T1, Ub/E1/E2 (GST fusion ubiquitin, Uba1, UbcH5b) (Homo sapiens, UniProt P0CG47+P22314+P62837); experiment: Ubiquitin ligase activity of CRBN using an in vitro reaction system; assay type: biochemical; conditions: added to Uba1, UbcH5b and GST fusion ubiquitin; FIG. 4, lane 2
T1 construct: a recombinant GST fusion ubiquitin (Ub) protein
T1 sequence (P22314 whole entry, other chains not shown, the tested form may be a part): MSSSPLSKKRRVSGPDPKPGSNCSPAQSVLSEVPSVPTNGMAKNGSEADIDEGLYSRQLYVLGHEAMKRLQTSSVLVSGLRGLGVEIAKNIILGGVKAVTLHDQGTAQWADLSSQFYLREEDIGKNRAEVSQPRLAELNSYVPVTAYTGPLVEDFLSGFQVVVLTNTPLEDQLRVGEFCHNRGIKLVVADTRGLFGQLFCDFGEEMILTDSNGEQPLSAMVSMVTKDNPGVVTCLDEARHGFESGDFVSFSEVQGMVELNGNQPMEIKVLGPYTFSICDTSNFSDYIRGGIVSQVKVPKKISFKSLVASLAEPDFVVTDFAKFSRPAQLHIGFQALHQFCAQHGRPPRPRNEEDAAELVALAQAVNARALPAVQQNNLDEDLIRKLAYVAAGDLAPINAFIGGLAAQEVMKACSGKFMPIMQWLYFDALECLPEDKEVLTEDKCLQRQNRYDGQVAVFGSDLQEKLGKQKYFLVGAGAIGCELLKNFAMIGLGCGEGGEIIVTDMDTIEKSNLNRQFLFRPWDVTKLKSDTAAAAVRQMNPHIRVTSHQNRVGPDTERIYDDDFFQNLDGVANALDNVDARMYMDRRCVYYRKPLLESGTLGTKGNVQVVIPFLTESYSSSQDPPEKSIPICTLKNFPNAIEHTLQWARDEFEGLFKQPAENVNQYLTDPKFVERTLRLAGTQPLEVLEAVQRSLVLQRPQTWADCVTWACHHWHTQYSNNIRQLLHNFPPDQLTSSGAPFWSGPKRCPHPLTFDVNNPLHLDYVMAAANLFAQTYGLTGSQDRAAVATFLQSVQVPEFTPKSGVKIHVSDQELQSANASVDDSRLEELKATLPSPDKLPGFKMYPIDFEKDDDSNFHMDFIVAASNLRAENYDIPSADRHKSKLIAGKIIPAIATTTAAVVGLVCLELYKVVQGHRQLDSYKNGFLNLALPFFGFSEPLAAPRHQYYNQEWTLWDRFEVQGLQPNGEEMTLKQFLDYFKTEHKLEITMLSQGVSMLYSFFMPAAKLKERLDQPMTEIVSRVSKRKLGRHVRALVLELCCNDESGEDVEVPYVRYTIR
T1 sequence (P62837 whole entry, other chains not shown, the tested form may be a part): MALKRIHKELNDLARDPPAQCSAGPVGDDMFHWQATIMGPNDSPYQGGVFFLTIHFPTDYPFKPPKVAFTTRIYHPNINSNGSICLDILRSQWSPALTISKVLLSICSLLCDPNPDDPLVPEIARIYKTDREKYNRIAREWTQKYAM
Description: This process was carried out basically in accordance with the method of Groisman et al. Firstly, CRBN and a binding protein (referred to as a CRBN complex) were purified from a cell lysate solution of mammalian cells expressing CRBN fused with a FLAG epitope tag using M2 FLAG agarose beads (SIGMA). Subsequently, the CRBN complex thus purified was mixed with an aqueous solution containing Uba1 (E1), UbcH5b (E2), and a recombinant GST fusion ubiquitin (Ub) protein, and after addition of ATP, the mixture was left to stand at 30 to 37° C. for two hours. Thereafter, the reaction was terminated by SDS, and self-ubiquitination and ubiquitination of the binding protein were visualized by polyacrylamide gel electrophoresis and immunoblotting, whereby the ubiquitin ligase activity was detected and measured.

zebrafish embryo brain = experiment: Determination of functional hierarchy of Lhx2 and CRBN (knockdown plus head-specific overexpression); assay type: in vivo
Description: (§1) The method of lipofection was entirely in accordance with the technique developed and published by Ando et al. (Ando and Okamoto, Efficient transfection strategy for the spatiotemporal control of gene expression in zebrafish. Mar. Biotechnol. 8(3): 295-303, 2006).
An aqueous solution of a 25-mer antisense morpholino oligonucleotide (AMO, Gene Tools, LLC) corresponding to the vicinity of the translation initiation codon in the cDNA sequence of the gene to be knocked down (700 ng/μl, injection conditions were the same as those used for RNA) was injected into the embryos at the 1-cell stage. The sequence of AMO used for crbn gene knockdown is 5′ […] 3′ (SEQ ID NO:1), and that used for lhx2 gene knockdown is 5′ […] 3′ (SEQ ID NO:2).
This process was carried out entirely in accordance with the technique of Ando et al. (H. Ando et al., Lhx2 mediates the activity of Six3 in zebrafish forebrain growth. Dev. Biol. 287(2): 456-468, 2005) except for the following procedure. […] When the effect of knocking down of A is rescued, whereas the effect of knocking down of B is not rescued by an inverted combination of A and B, within a 24-hour period after fertilization, it is determined that A lies functionally upstream of B. […]

[3] = test system: forebrain and midbrain of the zebrafish embryos; experiment: CRBN overexpression experiment in the forebrain and midbrain; assay type: in vivo
Description: Adult fish were reared at a constant temperature of 28.5° C. and maintained and bred under a diurnal cycle of 14 hours of light-on and 10 hours of light-off. Fertilized eggs were secured by natural mating between males and females, and an aqueous solution of 600 ng/μl capped RNA synthesized in vitro was injected into the cytoplasm of the embryos before the first cleavage (1-cell stage) under conditions of a nitrogen gas pressure of 30 psi and a valve opening time of 30 msec (millisecond). Because the expression of all the genes except the lhx2 gene (i.e., the crbn gene, the six3.2 gene, and a gene encoding a protein composing an E3 ubiquitin ligase complex with crbn) has little impact on the embryonic development, even when systemically expressed, this method was used to obtain the first data.
as §1
Antibody staining of early neurons of zebrafish was performed by the following technique. The embryos 24 to 28 hours after fertilization were fixed at 4° C. for 12 hours in a 4% paraformaldehyde/phosphate buffer (pH 8.0). […]

[4] = test system: glia cells and serotonin-producing cells of zebrafish; experiment: Fluorescent staining of glia cells and serotonin-producing cells; assay type: in vivo; conditions: CRBN-overexpressing individual
Description: Two-day-old zebrafish were used (for glia cell staining and serotonin-producing cell staining, zebrafish 56 hours and 49 hours after fertilization were used, respectively). Zebrafish were fixed with 4% paraformaldehyde (PFA) and then washed with phosphate buffer (PBS), followed by treatment with 10 μg/ml protease K for partial digestion of the epidermis. After the digestion reaction, the zebrafish were washed with PBST (PBS+0.5% Triton X-100) for 20 minutes and then fixed with PFA again. The fixed zebrafish were washed with PBST at room temperature for one hour, followed by blocking using PBST+5% goat serum. The resulting specimens were reacted with a monoclonal anti-glia antibody (zrf-1/zrf-2) or a rabbit anti-serotonin antibody at 4° C. overnight (12 to 18 hours). Subsequently, the specimens were washed with PBST+5% goat serum for one hour at room temperature, and secondary antibody reaction was carried out by substituting the antibody for a goat anti-mouse IgG antibody (Cy-2 conjugate for glia cell staining) or a goat anti-rabbit IgG antibody (Cy-5 conjugate for serotonin-producing cell staining) at 4° C. overnight (12 to 18 hours). Subsequently, the specimens were washed with PBST at room temperature for one hour. After washing, PBST was replaced by 30%, 50%, 70% glycerol/PBS and the whole zebrafish were mounted on glass slides to obtain preparations. Fluorescence was observed under excitation wavelength of Cy-2 and Cy-5 and the distribution of the glia cells or the serotonin-producing cells was recorded. It is to be noted that glia cells were observed from the lateral side of zebrafish, while the serotonin-producing cells were photographed from the dorsal side in order to observe the distribution of the cells along the midline.

CC(C)C[C@@H](C=O)NC(=O)[C@H](CC(C)C)NC(=O)[C@H](CC(C)C)NC(=O)OCc1ccccc1 [MG132] (Cbz-Leu-Leu-Leu-aldehyde)
bands representing the CRBN-containing proteins (self-ubiquitination) [1]: a number of bands representing the CRBN-containing proteins were detected

FH-CRBN complex: CRBN fused with a FLAG epitope tag and binding proteins, purified from mammalian cell lysate with M2 FLAG agarose beads
detection of ubiquitinated proteins by immunoblotting [2]: proteins that would not be detected in the absence of addition of CRBN were detected

B1: CRBN: protein called CRBN (cereblon) that forms a ubiquitin ligase complex; overexpressed in zebrafish embryos by injected or lipofected crbn RNA (protein, UniProt Q68EH9 1-431, looked up)
Protein cereblon: MGNQLQLLPENEEEEEDDMETEDRDGEDVEKPSIINFDTSLPTSHAYLGSDMEEFHGRTLHDEDSVQNLPVLPHVALILIPGQTLPLQLFRPQEVSMFRNLVSQDRTFAVLAHSPDPSGTETKAEFGTTAEIYAFREEQEYGIETVKIKAVGRQRFRVHDIRTQADGIRQAKVQILPERILPDPLCALQFLPRLHTHSPQTKHTQTTPPQKRCSQNYRQKKLHCASMTSWPPWVYSLYDSKTLMSRVKKQLHEWDENLKDESLPTNPTDFSYRVAACLPIDDALRLQLLKIGSAIQRLRCELDIMDRCTSLCCKQCQDTEITSKNEIFSLSLYGPMAAYVNPHGYVHETLTVYKASNLNLIGRPSTLHSWFPGYAWTIAQCRTCSSHMGWKFSAVKKDLSPPRFWGLTRSALLPTIPQGEEGVEGSRLLCL
brain size of embryo (zebrafish embryo brain; crbn gene-overexpressing embryo, compared to the normal embryo (FIG. 1, upper right)): brain enlargement | brain size of embryo (zebrafish embryo brain; lhx2 gene knocked down while crbn gene overexpressed (FIG. 1, lower right)): brain enlargement | morphology of the neuron network in the brain ([3]; CRBN overexpression (FIG. 2, right)): morphologically normal | enlargement of forebrain and midbrain in volume ([3]; CRBN overexpression, shape retained (FIG. 2, right)): approximately 1.5 times | spatial distribution of glia cells and serotonin-producing cells [4]: normal spatial distribution was maintained | serotonin-producing cells ([4]; 49 hours after fertilization (FIG. 7)): increased | glia cells ([4]; 56 hours after fertilization (FIG. 6)): increased
